Data published in patent publication US20260250421A1 (BIOCYTOGEN PHARMACEUTICALS BEIJING, published 2026).

Experiments:
[1] = target: T1, His-tagged monkey TROP2 protein (cynomolgus monkey; Rhesus …, UniProt A0A5F8AGB8 27-274); assay: SPR Biacore 8K, Ab on Protein A chip
T1 construct: also called cTROP2-His; ACRO Biosystems Cat# TR2-R52H3
T1 sequence: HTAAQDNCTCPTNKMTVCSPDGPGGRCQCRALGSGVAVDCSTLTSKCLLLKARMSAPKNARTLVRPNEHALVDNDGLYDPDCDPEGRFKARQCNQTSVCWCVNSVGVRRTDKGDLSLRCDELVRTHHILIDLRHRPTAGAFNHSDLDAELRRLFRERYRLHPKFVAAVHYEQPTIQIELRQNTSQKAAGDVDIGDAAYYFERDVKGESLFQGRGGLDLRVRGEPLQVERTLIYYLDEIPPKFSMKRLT

[2] = target: T2, TROP2 on NCI-H1975 and NUGC-4 tumor cells (UniProt P09758 27-323, limits assumed); assay: flow cytometry on NUGC-4 cells (only TROP2 expression), anti-hIgG-Fc Alexa Fluor 647 secondary antibody, MFI [B]
T2 construct: whole, on cells; species of the lines is not worded there; also called TROP2 on cells
T2 sequence (looked up): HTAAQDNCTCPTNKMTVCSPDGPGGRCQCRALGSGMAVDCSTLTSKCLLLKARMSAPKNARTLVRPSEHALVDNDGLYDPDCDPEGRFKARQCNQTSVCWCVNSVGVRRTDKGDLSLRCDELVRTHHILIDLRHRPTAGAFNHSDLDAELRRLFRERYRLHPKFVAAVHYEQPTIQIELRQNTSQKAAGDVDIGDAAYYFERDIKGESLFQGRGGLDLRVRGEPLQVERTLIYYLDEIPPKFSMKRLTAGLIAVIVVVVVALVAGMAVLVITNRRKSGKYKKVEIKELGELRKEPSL
Experimental: (§1) This experiment was performed to test the binding activities of the anti-PTK7/TROP2 bispecific antibodies to different tumor cell lines. NCI-H1975 cells or NUGC-4 cells were transferred to a 96-well plate at a density of 5×10⁴ cells/well respectively. The sample antibody was added to the 96-well plate, and incubated at 4° C. for 30 min.

[3] = target: T3, human PTK7 on human cancer cell lines (human, UniProt Q13308 31-1070); assay: flow cytometry on NCI-H1975 cells co-expressing PTK7 and TROP2; the single curve of the bispecific is not resolved between the two targets; anti-hIgG-Fc Alexa Fluor 647 secondary antibody, MFI [A]
T3 construct: Endogenous PTK7 of human tumour cell lines; also called PTK7 on A-431, NCI-H520, NCI-N87, SK-OV-3, BT-20, HCC1954, NCI-H226, NCI-H358, HCT116, PC-3, NCI-H292, NCI-H1975 cells
T3 sequence: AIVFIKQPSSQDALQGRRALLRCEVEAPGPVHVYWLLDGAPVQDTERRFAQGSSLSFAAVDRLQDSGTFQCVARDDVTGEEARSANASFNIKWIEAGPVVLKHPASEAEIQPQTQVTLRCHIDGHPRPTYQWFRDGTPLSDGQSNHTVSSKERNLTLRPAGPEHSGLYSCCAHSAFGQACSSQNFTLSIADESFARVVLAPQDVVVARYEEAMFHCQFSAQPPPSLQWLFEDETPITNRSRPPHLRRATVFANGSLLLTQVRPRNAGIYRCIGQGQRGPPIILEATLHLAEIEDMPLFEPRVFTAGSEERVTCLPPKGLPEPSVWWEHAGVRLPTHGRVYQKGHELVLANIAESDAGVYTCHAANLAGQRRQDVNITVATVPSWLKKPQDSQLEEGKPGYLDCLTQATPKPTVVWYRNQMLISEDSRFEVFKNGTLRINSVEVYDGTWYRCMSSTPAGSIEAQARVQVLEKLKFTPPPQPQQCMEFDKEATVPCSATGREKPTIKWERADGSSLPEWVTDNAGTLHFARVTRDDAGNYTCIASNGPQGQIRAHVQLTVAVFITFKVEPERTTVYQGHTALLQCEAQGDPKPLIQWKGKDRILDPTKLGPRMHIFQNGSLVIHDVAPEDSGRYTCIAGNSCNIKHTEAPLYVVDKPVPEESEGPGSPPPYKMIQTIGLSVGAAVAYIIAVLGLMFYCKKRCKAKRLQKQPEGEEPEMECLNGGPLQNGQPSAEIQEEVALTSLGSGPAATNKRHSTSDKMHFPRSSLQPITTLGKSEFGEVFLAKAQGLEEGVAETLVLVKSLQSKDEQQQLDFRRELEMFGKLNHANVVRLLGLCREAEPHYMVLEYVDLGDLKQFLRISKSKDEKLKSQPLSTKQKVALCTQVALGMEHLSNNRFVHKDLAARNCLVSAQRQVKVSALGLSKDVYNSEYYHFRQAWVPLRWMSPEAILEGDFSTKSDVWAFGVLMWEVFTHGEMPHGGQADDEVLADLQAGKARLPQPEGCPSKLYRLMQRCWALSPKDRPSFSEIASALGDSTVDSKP
Experimental: as §1

[4] = target: T2, TROP2 on NCI-H1975 and NUGC-4 tumor …; assay: as above
Experimental: as §1

B1: 3C4-18E9 (bispecific antibody, human IgG1, V domains shown)
VH 1: QVQLEQSRAEVKKPGESLRISCKGSGYSFTSYWISWVRQMPGKGLEWMGRIDPSDSYTNYNPSFQGHVTISADKSISTAYLQWSSLKASDTAMYYCARRDGSYFDFDYWGQGTLVTVSS
VH 2: QLQLQQSGPGLLKPSETLSLTCTVSGGSISSSYYFWGWIRQPPGKGLEWIGAIYYIGNTHYNPSLKSRVTISIDTSKNQFSLNLNSVTAADTAIYYCARYEDTWNWFDPWGQGTLVTVSS
VL: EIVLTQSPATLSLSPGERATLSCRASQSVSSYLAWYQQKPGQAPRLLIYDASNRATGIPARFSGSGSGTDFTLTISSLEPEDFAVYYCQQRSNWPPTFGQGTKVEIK
notes: which arm carries the knob is stated only for 3C4-6F7; also called anti-PTK7/TROP2 bispecific antibody 3C4-18E9
Which results are given for B1?
Kd [1]: 3.16 nM; koff [1]: 0.00104 s⁻¹; kon [1]: 329000 M⁻¹ s⁻¹; EC50 (read off the curve) [2]: ~0.6 µg/mL; EC50 (read off the curve) [3]: ~0.7 µg/mL; EC50 (read off the curve) [4]: ~0.7 µg/mL
